{"source": "patent US20230105457A1", "about": "“Immunogenic Compounds For Treatment Of Adrenal Cancer” (ENTEROME S.A., priority 2019, published 2023)", "key": {"[1]": {"system": "T2 cell lines loaded with bacterial peptide", "assay": "Cytotoxic assay of expanded peptide-specific CD8+ T cells (Example 14)", "type": "cell-based, human", "conditions": "T cell clones expanded in vitro; flow cytometry readout", "source_text": "CD8+ T cells expanded per above were used to perform cytotoxic assays in presence of different ratios of target and effector cells to assess their cytotoxic capacity, using flow cytometry readout. Target cells were T2 cell lines loaded with bacterial peptide. Negative control was T2 cells unloaded and T2 cells loaded with irrelevant peptide."}, "[2]": {"biological_target": "HLA-A*0201 molecule expressed on human tumor cell line T2 (human)", "assay": "T2 cell HLA-A2 stabilisation, FACS; peptide at 10 µM"}, "[3]": {"biological_target": "HLA-A*0201 molecule expressed on human tumor cell line T2 (human)", "assay": "T2 cell HLA-A2 stabilisation, FACS; peptide at 1 µM"}, "[4]": {"biological_target": "HLA-A*0201 molecule expressed on human tumor cell line T2 (human)", "assay": "T2 cell HLA-A2 stabilisation, FACS; peptide at 0.1 µM"}, "[5]": {"biological_target": "HLA-A*0201 molecule expressed on human tumor cell line T2 (human)", "assay": "T2 cell HLA-A2 stabilisation, FACS; 20% of signal of HIV pol 589-597 at 100 µM"}, "[6]": {"biological_target": "T1, HLA-A*0201 molecule expressed on human tumor cell line T2 (human)", "T1 construct": "surface HLA-A2 read with anti-HLA-A2 antibody BB7.2-PE by FACS; also called HLA-A2", "assay": "T2 cell HLA-A2 stabilisation, FACS"}}, "note": "Ends that are not written are not given here."}
{"molecule": "FLPFGFILPV [IL13RA2-L]", "values": [{"measurement": "Cytotoxic capacity of peptide-specific human T cell clones (in words)", "setting": "[1]", "result": "have the capacity to kill T2 cells loaded with the bacteria peptide"}]}
{"molecule": "reference peptide HIV pol 589-597", "values": [{"measurement": "mean relative fluorescence intensity (relative (HIV peptide = 100))", "setting": "[2]", "result": 84.7}, {"measurement": "mean relative fluorescence intensity (relative (HIV peptide = 100))", "setting": "[3]", "result": 22.1}, {"measurement": "mean relative fluorescence intensity (relative (HIV peptide = 100))", "setting": "[4]", "result": 2.4}, {"measurement": "Concentration of peptide that induces 20% of HLA-A2 expression", "setting": "[5]", "result": 0.85, "unit": "µM"}]}
{"molecule": "YLYTFLIST", "note": "[IL13RA2-B2 (SEQ ID NO: 192, Example 3)]", "values": [{"measurement": "binding result", "setting": "[6]", "result": "binds"}]}
